Source: IntAct's records for PubMed 31063459

B1: Dynamin-1-like protein (Mus musculus), Q8K1M6-3 (parent)
chain: MEALIPVINKLQDVFNTVGADIIQLPQIVVVGTQSSGKSSVLESLVGRDLLPRGTGVVTRRPLILQLVHVSPEDKRKTTGEENGVEAEEWGKFLHTKNKLYTDFDEIRQEIENETERISGNNKGVSPEPIHLKVFSPNVVNLTLVDLPGMTKVPVGDQPKDIELQIRELILRFISNPNSIILAVTAANTDMATSEALKISREVDPDGRRTLAVITKLDLMDAGTDAMDVLMGRVIPVKLGIIGVVNRSQLDINNKKSVTDSIRDEYAFLQKKYPSLANRNGTKYLARTLNRLLMHHIRDCLPELKTRINVLAAQYQSLLNSYGEPVDDKSATLLQLITKFATEYCNTIEGTAKYIETSELCGGARICYIFHETFGRTLESVDPLGGLNTIDILTAIRNATGPRPALFVPEVSFELLVKRQIKRLEEPSLRCVELVHEEMQRIIQHCSNYSTQELLRFPKLHDAIVEVVTCLLRKRLPVTNEMVHNLVAIELAYINTKHPDFADACGLMNNNIEEQRRNRLARELPSAGSRDKVPSAGGGIGDGGQEPTTGNWRGMLKTSKAEELLAEEKSKPIPIMPASPQKGHAVNLLDVPVPVARKLSAREQRDCEVIERLIKSYFLIVRKNIQDSVPKAVMHFLVNHVKDTLQSELVGQLYKSSLLDDLLTESEDMAQRRKEAADMLKALQGASQIIAEIRETHLW

Legend:
[1] = variants of: B1; conditions: with arp3_human ACTR3, P61158
[2] = variants of: B1; conditions: with cof1_human CFL1, P23528
cof1_human CFL1, P23528, sequence (P23528 whole entry): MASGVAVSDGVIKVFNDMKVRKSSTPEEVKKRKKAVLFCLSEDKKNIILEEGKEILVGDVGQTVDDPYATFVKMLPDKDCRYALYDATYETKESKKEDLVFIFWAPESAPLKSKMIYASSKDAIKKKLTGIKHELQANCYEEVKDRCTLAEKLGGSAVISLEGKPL

Variant | effect of a mutation on the interaction [1] | effect of a mutation on the interaction [2]
S600A | decreasing interaction strength | decreasing interaction strength
S600D | increasing interaction strength | increasing interaction strength
